Laboratory results taken from the supplement of paper PMC12042874.
± gives the uncertainty stated by the source.

Assay: amyloid nucleation score (Sup35N fusion, yeast selection) (log enrichment); library NNK3; higher = more nucleation; inactive = no reads after selection
Method in brief: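 Plasmid inserts were Illumina-sequenced at input and output from psi-negative yeast expressing Sup35N fused to peptides of 20 random codons. The yeast were induced with 100 μM copper sulfate for 24 hours and grown 7 days at 30°C on medium lacking adenine and uracil, and sequences with under 100 input reads were excluded. Nucleation score is the DiMSum log enrichment of output over input reads, centred on the mode score of non-aggregating sequences.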

Amyloid nucleation score, 0.98 ± 0.2:
EPNVFSSLGILNINVVALWL

Amyloid nucleation score, -0.463 ± 0.93:
EKFTMLARSKAAICLVDKSC

Amyloid nucleation score, -0.227 ± 0.69:
ETYNRR

Amyloid nucleation score, 0.653 ± 0.11:
EYIAFISTIPDMSLFSDVLF

Amyloid nucleation score, -0.228 ± 0.93:
EVSIKAVDWRVSDVTVARTC

Amyloid nucleation score, 1.29 ± 0.096:
EVGVTSLTIGHVT

Amyloid nucleation score, inactive:
EGHHPVGGGLLIFASLT, EGRCMRKCARVNGSWAMKWM, EGRWTCPFGGWTESFGSLYW, EGSDIA, EGYQVFFNDLVLTLVMRVEV, EGYRFCCGMLIN, EHLPSSHP, EHSNNFTHNYVFWIGIGLAC, EHYVDCVGDVAVRDVLVGAS, EILSPVGTSTCILTSPRTCY, EINMKSLV, EIWSDKCSTRSMLHPAYIMY, EKDMFQNVLLVKAYD, EKRYRPEKTF, ELAFMNYYNNECSRPLLSSP, ELDAYIRRGLCSLKWCRKLN, ELHYPVLVDS, ELIDFTIGLL, ELMHFLAFVGDAMYVLSGII, ELNWWHLLVICCVYYFMVLF, ELRSHKLMMGRQYLHRLCSV, ELSSLSFHIHNMEFREKVKG, ELVVTNVNGFLMW, ELYSDG, EMGEGIL, EMTMTWCMVVRLVWVTNGIL, ENLSEVWLSYVDSLSIYVLS, ENNVRTVHVISWAIFLSTYF, ENVARGAMFCPMHRGFQSSE, ENWDSILCKWRGAGMRGSAW, EPDFEHIVCAFMGSTTGYYW, EQIPMKSVEGEYWLTVIVGN, EQMWFEVCYGCRSCSEALLR, ERHDGCFQ, ERNNKCDNTVLMKREELQG, ERQNMSYMGHKKEYLNHYFW, ERRIPRSNLKRRSKLSKFPA, ERRVLISERAQWISLLYGIL, ERSFAYDYDCSVCFTHAFAT, ERTSYSC, ESAYFLAYLQVLLWRVMGEL, ESKMGCP, ESMTSNYYQMIGVFCEMLVR, ESNDIIINV, ESNRTFTKSTFFLTNEVKGL, ESPNGFFGSMDVCVLPRGSV, ESRFCTYVSSRDYISTIQFN, ETDYVGRFALMKYDGLVYI, ETGLLFGWDRVSSYWGVLKT, ETRMGTK, ETTYGFDKIYGVEYVCGLCR, EVGDPMYRTIGVKFGPLAME, EVLGSLFYFGYTTGLFIPF, EVLSNDGAGLFFHGKKCMYI, EVQEKAEHHVLVGRVANPRF, EVYKYKSEERMVAST, EYKRTSMVVQFSCSAYILTF, EYMYIYPPFPMPWDDG, EYQTNNDYLQLTCLKSSWSS, EYYGRVLSLTVTNIHFFRVF, EYYLDMDLMFMMG, FAGCWTVTSMGFCNRSGMKL, FAGESN, FARKWCVKNGYGSRTSASFM, FASIYNFHDRIVSLRDQGR, FAYLVS, FCARYLFCLISGDYS, FCGIYCKAINSFAVDLMPWI

Amyloid nucleation score, 2.21 ± 0.068:
ESSISTLFIFNMVGPQ

Amyloid nucleation score, 1.65 ± 0.088:
EMVLGWSARFCDK

Amyloid nucleation score, 0.091 ± 0.53:
EVSSGCCERGVYLMLLCTGT

Amyloid nucleation score, 0.64 ± 0.26:
EINFMKRASRVRLKQYNQ
